Here are results for 4 molecules from patent US8003360B2, “Debaryomyces castellii phytase” (Adisseo France S.A.S., priority 2005, dated 2011).

Data set [1] deals with D. castellii phytase. In words: Influence of effectors on phytase activity. Type of data set: biochemical, Debaryomyces castellii.
Data set [2] relates to Schwanniomyces occidentalis phytase. The conditions noted are these: Segueilha et al., 1992; cited from earlier work.
The test system is the same in data set [3]. The following applies: Segueilha et al., 1992; cited from earlier work. The source holds these as a separate data set.
The target in data set [4] is T1, Debaryomyces castellii CBS 2923 phytase, native (wild type), SEQ ID No. 2 (Schwanniomyces capriottii, UniProt A2TBB4). The experiment in a line: Influence of effectors on the phytase activity. Type of data set: biochemical. The conditions noted are these: Table 3. How it is done:
(§1) The amount of phosphate released is measured by colorimetery. The visualizing solution, prepared extemporaneously, contains iron sulphate (380 mM, 1 volume) and ammonium heptamolybdate (12 mM, 4 volumes). The absorbance at 700 nm is measured after 30 minutes of visualization at ambient temperature (1 volume of reaction medium+1 volume of visualizing solution), using a UV/visible spectrophotometer (Beckman DU 530).

Data set [5] concerns the target T1, Debaryomyces castellii CBS 2923 phytase, native (wild type), SEQ ID No. 2. The experiment in a line: Kinetic constants (specificity study) of the native phytase. Type of data set: biochemical. The conditions noted are these: native enzyme, 37° C.; pH 4 for sodium phytate, pH 5.5 for p-NPP. Here is the method:
(§2) The effect of pH on the phytase activity is determined using the following buffer solutions: 200 mM glycine-HCl, pH 2-3.5; 200 mM sodium acetate-acetic acid, pH 3.5-7; and 200 mM tris-HCl, pH 7-9. The reactions are carried out at +37° C. using the phytate as substrate. The optimum temperature is determined by varying the temperature from +30° C. to +80° C. […] After the heat treatment, the mixture is cooled in ice and the phytase activity is determined using the phytate as substrate.
as §1
(§3) The kinetic constants are determined on 2 substrates.

The subject of a further data set is recombinant phytase. The experiment in a line: Kinetic constants of the recombinant phytase on substrates. The conditions noted are these: Lineweaver-Burk representation. It is filed as biochemical, Debaryomyces castellii.
For data set [6], the target named is T2, recombinant Debaryomyces castellii CBS 2923 phytase (recPhyt, expressed in Pichia pastoris), SEQ ID No. 2 (Schwanniomyces capriottii, UniProt A2TBB4). The following applies: recombinant enzyme, Lineweaver-Burk; 37° C.; pH 4 for sodium phytate, pH 5.5 for p-NPP.
Data set [7] has as its system D. castellii phytase. In words: Substrate specificity, phosphate release kinetics (Table 6A). The following applies: substrate 4 mM; 250 mM sodium acetate buffer, 1 mM CaCl2, pH 4, 37° C. It is filed as biochemical, Debaryomyces castellii.
Experimental: The reaction is triggered by the addition of the enzymatic extract (1 volume). The reaction is stopped by acidification of the medium with 20% trichloroacetic acid (1 volume of reaction medium+1 volume of acid). The amount of phosphate released is determined after various incubation times.
In data set [8] the test system is D. castellii phytase. In words: Kinetic constants of the native phytase on substrates. The following applies: +37° C., pH 4 with sodium phytate, pH 5.5 with p-NPP. Type of data set: biochemical, Debaryomyces castellii. Here is the method:
as §2, §3

In data set [9] the target is T2, recombinant Debaryomyces castellii CBS 2923 phytase (recPhyt, expressed in Pichia pastoris), SEQ ID No. 2. In words: Hydrolysis of inositol phosphates by the recombinant phytase (chromatogram). The following applies: InsP3 compared with InsP4, InsP5 and InsP6. It is filed as biochemical. How it is done: (§4) Samples are taken at various times for 6 hours. The reaction is stopped by heating at 100° C. (10 minutes).
(§5) J. Agric. Food Chem. 45, 431-436; Türk, M., Sandberg, A. S., Carlsson, N. G. and Andlid, T. (2000) Inositol hexaphosphate hydrolysis by baker's yeast. Capacity, kinetics, and degradation products. J. Agric. Food Chem. 48, 100-104). […] This system makes it possible to detect the Ins P2 to Ins P6, but only the various isomers of Ins P4 and Ins P5 can be separated.
See Example 1, 7.5 and 7.6.

Data set [10] in a line: Phytase activity as a function of temperature. The following applies: reaction of phytate hydrolysis. Type of data set: biochemical. Here is the method: FIG. 2: Activity of the D. castellii phytase as a function of temperature. The activity is measured at pH 4, at 37° C. for 20 minutes.
as §2
The optimum temperature is determined on the native phytase, by measuring the phytase activity at various temperatures: from 30 to 80° C. (FIG. 2).

Data set [11] is described as follows: Specific phytase activity by phytate hydrolysis. The following applies: native D. castellii phytase, purification steps. Type of data set: biochemical. Here is the method:
The protein content is determined by the Bradford method (Bradford, M. (1976) A rapid and sensitive method for the quantification of microgram quantities of proteins utilizing the principle of protein-dye binding. Anal. Biochem. 72, 248-254). (Biorad Protein Assay Dye Reagent Concentrate, BIORAD 500-0006), the absorbance is measured at 595 nm (Beckman DU 530 UV/visible spectrophotometer). The calibration is carried out with a bovine serum albumin range.
One enzymatic unit (U) is defined as the amount of enzyme which releases one μmol of inorganic phosphate in one minute.
as §1

Data set [12] is described as follows: Hydrolysis kinetics of InsP6 followed by NMR. Type of data set: biochemical. Here is the method: The time period between two spectra is 23 minutes. After an overnight period, 20 μl of enzyme were added in order to accelerate the reaction. After 16 h, the hydrolysis is complete and the spectrum characteristic of inositol is obtained (top spectrum). These kinetics clearly show the successive appearance of InsP5, of InsP4 and of InsP3.
FIG. 10: Faster kinetics making it possible to follow the complete hydrolysis of InsP6 (600 MHz, 17° C., 500 μl D2O, 3.8 mM of InsP6, pH 4.0, 5 μl of enzyme). A spectrum was recorded every 3 min for 20 h (400 spectra). After 10 hours, the hydrolysis is virtually complete. The spectra plotted correspond to one spectrum out of 10 (30 min between two spectra). Some characteristic signals are annotated.
The sample used to follow the hydrolysis by NMR is prepared from a stock solution of InsP6/phosphate buffer, 96/700 mM in D2O. […] Depending on the desired rate of hydrolysis, a greater or smaller amount of enzyme (1 to 20 μl of the stock solution at 3 U/ml) is added. The kinetics are followed at 17° C. by recording a spectrum (32 scans) every 3 minutes for 20 hours (400 spectra). Using the spectra characteristic of the various inositol phosphates determined previously, their appearance and disappearance can be followed over the entire kinetics.
Depending on the temperature (in this case 17° C.) and on the concentration of enzyme, kinetics can be slow (1 μl of enzyme) and the appearance of the first intermediates readily observed. It is under these conditions that the spectral characteristics of InsP5 were obtained and that the successive appearance of Ins P5, Ins P4 and Ins P3 is clearly seen.
In the presence of 5 μl of enzyme, the formation of Ins P2, Ins P1 and inositol is observed. In the intermediate phase, the complexity of the spectra obtained accounts for the mixture of the Ins Pns. After hours, the hydrolysis is not complete. In the presence of 20 μl of enzyme, complete hydrolysis was obtained in approximately 4 hours. […]

Data set [13] is described as follows: Storage stability of the phytase at -20° C. at various pHs. It is filed as physicochemical.
Data set [14] in a line: Heat denaturation / heat stability of the phytase. Type of data set: physicochemical. Here is the method:
FIG. 3: Heat denaturation of the D. castellii phytase. […] The activity is then measured at 37° C. for 20 min.
as §2
It is denatured above 68° C., with a 70% loss of activity after one hour at 70° C. The energy for activation of the denaturation, calculated by means of the Arrhenius representation, is 606 kJ/mol.

The test system of data set [15] is Debaryomyces castellii CBS2923 phytase. The experiment in a line: Influence of the environment (additives, calcium, buffer molarity) on thermostability of the phytase. Type of data set: physicochemical. The conditions noted are these: control: 250 mM acetate buffer pH 4, 1 mM calcium chloride, no additive. Here is the method: At the end of treatment, the extract is cooled in water at +4° C. […] Three types of elements are tested: • sugars or sugar alcohol: sucrose, lactose, trehalose, arabinose, glycerol, • the absence of calcium, • the molarity of the buffer. […] At the end of treatment, the extract is cooled in water to +4° C. […] Materials and Methods).

Data set [16] is described as follows: pH-stability and temperature-stability of the phytase. Type of data set: physicochemical. The following applies: for denaturation: 1 hour. How it is done: FIG. 4: Study of the pH-stability and temperature-stability. The phytase activity of D. castellii is measured after treatment of the extract at various pHs for 1 hour at two temperatures (40° C. or 60° C.). The activity is measured at pH 4.
The phytase activity is measured after incubation of the enzyme at 2 temperatures (40 and 60° C.) in buffers whose pH is between 2 and 8 (FIG. 4). […] On the other hand, in the range 3 to 7, from 80 to 100% of activity is conserved at 40° C. At 60° C., the phytase is more highly denatured at pH 3 and pH 8.

The nature of data set [17]: Hydrolysis of phytic acid followed over time (HPIC, phosphate assay). It is filed as biochemical. The conditions noted are these: after 300 minutes of hydrolysis, pH 4, 0.6 U/ml. How it is done:
as §4, §5
The hydrolysis conditions are described in Materials and Methods. The appearance of the various Ins Pn is monitored over time. After 15 minutes of hydrolysis, Ins P6 has virtually disappeared, 4 major peaks are detected and correspond to Ins (1,2,4,5,6) P5, Ins (1,2,5,6) P4, and peaks of Ins P3, Ins P2 and Ins P1 not identified by this method (FIG. 7). The assignment of the Ins P5 and Ins P4 is confirmed by the addition of authentic inositol samples. After 120 minutes of hydrolysis, the Ins P3 and Ins P1 peaks are predominant. This could reflect a much slower rate of hydrolysis of Ins P3 compared with Ins P4, 5 and 6. […] The enzyme releases all the phosphates. The characterization of the Ins Pn fractions separated by chromatography is carried out by NMR analysis.

Regarding `O=C(O)c1cc[c]([Hg][Cl])cc1` [PCMB], in the data set on D. castellii phytase [1] (effector 3 mM, phytate control = 100), the “% activity” value came out at 94.5%. Moreover, the “effect on phytase activity” value was “absence of effect” with D. castellii phytase [1] (inhibitors tested, see Table 3) and “greatly inhibits” in [3]. Also, the “inhibition of the activity (in words)” value in data set [2] is “greatly inhibits”. In addition, in data set [4], the “effect on the phytase activity (in words)” value is “not sensitive”.
The term Km denotes the substrate concentration at which the rate is half of its maximum. Consider `O=[N+]([O-])c1ccc(OP(=O)(O)O)cc1` [pNPP, p-nitrophenyl phosphate], for which the Km worked out at 2270 µM in data set [5], 2050 µM in the data set with recombinant phytase, 2050 µM in data set [6] and 2270 µM in the data set with D. castellii phytase [8]. The Vm is 274.6 U/mg with recombinant phytase and 30.9 µmol/min/mg in the data set on D. castellii phytase [8]. The “% activity” value in the data set with D. castellii phytase [7] came out at 135%.
For the molecule InsP3, in data set [9], the “affinity (in words)” value is given as “weaker affinity”.

B1: D. castellii phytase: Debaryomyces castellii CBS 2923 phytase of SEQ ID No. 2, a secreted glycosylated 3-phytase (protein, listed as Debaryomyces castellii)
chain: MVSVSKLINNGLLLVGQGAYQDLASPQQASVEQYNIIRFLGGAAPYIQNKGFGISTDIPDQCTLEQVQLFSRHGERYPSTGSGKKYKAVYEKLMSYNGTFKGELAFLNDDYEYFVPDSVYLEKETSPKNSDSIYAGTTDAMKHGIAFRTKYGELFDTNDTLPVFTSNSGRVYQTSQYFARGFMGDDFSNDTVKTNIISEDADMGANSLTPRDGCFNYNENANTAIVDEYTTEYLTKALNRFKASNPGLNITEDDVSNLFGYCAYELNVKGASPMCDIFTNEEFIQYSYSVDLDDYYSNSAGNNMTRVIGSTLLNASLELLNHDKNENKIWLSFTHDTDIEIFHSAIGILIPDEDLPVDYTPFPSPYSHVGITPQGARTIIEKYACGNESYVRYVINDAVIPIKKCSSGPGFSCNLNDYNDYVAERVAGTNYVEQCGNNNASAVTFYWDYETTNYTASLINS
modifications: glycosylated
On to B1, for which the “activation energy calculated according to the Arrhenius representation” value in [10] was 9.08 kcal/mol. Also, in data set [11], the Specific activity is 156 U/mg. In addition, the “time after which hydrolysis of InsP6 is complete” value in data set [12] (1.7 mM InsP6, pH 4.0, 17° C., 1 μl enzyme, 20 μl added after an overnight period) amounted to 16 h. Moreover, the “time after which hydrolysis of InsP6 is virtually complete” value in data set [12] (3.8 mM InsP6, pH 4.0, 5 μl of enzyme, 17° C.) is roughly 10 h. In addition, in data set [12] (20 μl of enzyme, 17° C.), the “time to complete hydrolysis of InsP6” value is “approximately 4 hours”. In addition, the denaturation after storage entry was “completely denatured” in data set [13] (21 days at -20° C., pHs of less than 5); “no denaturation” in [13] (67 days at -20° C., pHs of between 5 and 7). The loss of activity in data set [14] (after one hour at 70° C.) is reported as 70%. For the same molecule, the “energy for activation of the denaturation (Arrhenius representation)” value in data set [14] (heat denaturation) amounted to 145 kcal/mol. The “temperature above which the enzyme is denatured” value in [14] (heat denaturation study) is “above 68 °C”. Besides, the “temperature up to / below which the enzyme is stable” value in data set [14] (heat denaturation study) is “up to 66 °C”. The “temperature at which the enzyme is stable for one hour” value turned out to be 66 °C in data set [14] (in 125 mM acetate buffer, pH 4) and 60 °C in data set [14] (in water). In addition, in data set [15], the “activity after 1 h at 20° C.” value is on record as 99. For the same molecule, the “activity after 1 h at 66.5° C.” value in data set [15] is 47. Moreover, the “activity after 1 hour of contact” value in data set [16] (pH 2 and pH 8, 40 and 60° C.) is listed as “complete loss of activity”. Further, the denaturation entry in data set [16] (pH 8, acetate buffer) is given as “complete”; in data set [16] (pH 8, tris HCl buffer), 50%. The “amount of phosphate assayed as share of the potential phosphates of the phytate molecule” value in data set [17] was determined as 100%.
